Data from patent publication US20040106545A1 (MCGILL UNIVERSITY, published 2004).
Positions of bridges follow the written chain, without caps; N, C: chain ends.

T1: chick N-cadherin expressed on transfected 3T3 cells (chick, UniProt P10288 165-912)
T1 sequence (looked up): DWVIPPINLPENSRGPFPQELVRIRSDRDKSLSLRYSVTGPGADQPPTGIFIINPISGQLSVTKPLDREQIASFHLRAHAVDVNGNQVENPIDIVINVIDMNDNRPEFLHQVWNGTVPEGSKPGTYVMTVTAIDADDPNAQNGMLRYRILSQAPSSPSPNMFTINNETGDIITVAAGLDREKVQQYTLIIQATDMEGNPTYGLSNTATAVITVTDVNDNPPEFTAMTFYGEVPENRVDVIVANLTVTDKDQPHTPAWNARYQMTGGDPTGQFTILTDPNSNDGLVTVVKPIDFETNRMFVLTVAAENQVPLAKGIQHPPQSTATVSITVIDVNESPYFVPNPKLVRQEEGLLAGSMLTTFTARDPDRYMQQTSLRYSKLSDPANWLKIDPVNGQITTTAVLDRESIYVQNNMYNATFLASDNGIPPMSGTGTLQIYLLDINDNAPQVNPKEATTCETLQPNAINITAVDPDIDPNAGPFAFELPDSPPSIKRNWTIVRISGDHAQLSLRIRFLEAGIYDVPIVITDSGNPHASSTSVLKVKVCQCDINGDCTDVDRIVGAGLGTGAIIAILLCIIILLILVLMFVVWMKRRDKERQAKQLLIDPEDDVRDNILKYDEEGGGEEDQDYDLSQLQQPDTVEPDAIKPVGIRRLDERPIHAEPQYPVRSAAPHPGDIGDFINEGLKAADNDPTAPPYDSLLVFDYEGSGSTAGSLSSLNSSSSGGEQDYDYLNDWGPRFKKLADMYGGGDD

T2: E-cadherin on Madin Darby canine kidney (MDCK) cells (canine (MDCK cells), UniProt F1PAA9 157-885)
T2 sequence (looked up): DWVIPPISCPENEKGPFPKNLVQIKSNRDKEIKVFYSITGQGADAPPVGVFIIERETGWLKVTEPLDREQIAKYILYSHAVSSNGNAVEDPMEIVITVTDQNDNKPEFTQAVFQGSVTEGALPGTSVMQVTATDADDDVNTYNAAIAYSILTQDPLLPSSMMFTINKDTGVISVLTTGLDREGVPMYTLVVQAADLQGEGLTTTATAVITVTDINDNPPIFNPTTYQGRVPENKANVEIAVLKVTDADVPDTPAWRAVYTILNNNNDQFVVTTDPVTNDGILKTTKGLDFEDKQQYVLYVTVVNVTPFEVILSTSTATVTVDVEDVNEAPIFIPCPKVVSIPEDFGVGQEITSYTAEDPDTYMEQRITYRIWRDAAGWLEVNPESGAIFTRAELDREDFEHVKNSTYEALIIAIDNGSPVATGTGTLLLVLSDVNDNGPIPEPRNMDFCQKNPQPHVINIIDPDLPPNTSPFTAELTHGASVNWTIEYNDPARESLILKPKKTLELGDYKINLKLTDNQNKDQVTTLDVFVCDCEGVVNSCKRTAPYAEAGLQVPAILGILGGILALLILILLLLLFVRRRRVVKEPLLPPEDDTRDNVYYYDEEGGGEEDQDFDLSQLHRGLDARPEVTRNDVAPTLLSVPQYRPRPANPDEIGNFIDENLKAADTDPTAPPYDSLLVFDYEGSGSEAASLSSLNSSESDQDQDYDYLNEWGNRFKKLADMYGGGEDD

B1: N-Ac-CHAVC-E-NH2 (peptide)
peptide: Ac-CHAVCE-NH2
modifications: disulfide 1-5 (inferred)
B2: N-Ac-CHAVC-S-NH2 (peptide)
peptide: Ac-CHAVCS-NH2
modifications: disulfide 1-5 (inferred)
B3: N-Ac-CHAVC-T-NH2 (peptide)
peptide: Ac-CHAVCT-NH2
modifications: disulfide 1-5 (inferred)
B4: N-Ac-S-CHAVC-S-NH2 (peptide)
peptide: Ac-SCHAVCS-NH2
modifications: disulfide 2-6
SMILES: CC(=O)N[C@@H](CO)C(=O)N[C@H]1CSSC[C@@H](C(=O)N[C@@H](CO)C(N)=O)NC(=O)[C@H](C(C)C)NC(=O)[C@H](C)NC(=O)[C@H](Cc2c[nH]cn2)NC1=O
B5: N-Ac-CHAVC-SS-NH2 (peptide)
peptide: Ac-CHAVCSS-NH2
modifications: disulfide 1-5 (inferred)
B6: N-Ac-CHAVC-D-NH2 (peptide)
peptide: Ac-CHAVCD-NH2
modifications: disulfide 1-5 (inferred)
B7: N-Ac-YCHAVC-NH2 (peptide)
peptide: Ac-YCHAVC-NH2
modifications: disulfide 2-6
SMILES: CC(=O)N[C@@H](Cc1ccc(O)cc1)C(=O)N[C@H]1CSSC[C@@H](C(N)=O)NC(=O)[C@H](C(C)C)NC(=O)[C@H](C)NC(=O)[C@H](Cc2c[nH]cn2)NC1=O
B8: N-Ac-S-CHAVC-NH2 (peptide)
peptide: Ac-SCHAVC-NH2
modifications: disulfide 2-6
SMILES: CC(=O)N[C@@H](CO)C(=O)N[C@H]1CSSC[C@@H](C(N)=O)NC(=O)[C@H](C(C)C)NC(=O)[C@H](C)NC(=O)[C@H](Cc2c[nH]cn2)NC1=O
B9: N-Ac-CHAVC-Y-NH2 (peptide)
peptide: Ac-CHAVCY-NH2
modifications: disulfide 1-5 (inferred)
B10: N-Ac-CHAVPC-NH2 (peptide)
peptide: Ac-CHAVPC-NH2
modifications: disulfide 1-6 (inferred)
B11: N-Ac-CHAVDINC-NH2 (peptide)
peptide: Ac-CHAVDINC-NH2
modifications: disulfide 1-8 (inferred)
B12: N-Ac-CHAVYC-NH2 (peptide)
peptide: Ac-CHAVYC-NH2
modifications: disulfide 1-6 (inferred)
B13: N-Ac-CHAVDIC-NH2 (peptide)
peptide: Ac-CHAVDIC-NH2
modifications: disulfide 1-7 (inferred)
B14: N-Ac-CHAVDC-NH2 (peptide)
peptide: Ac-CHAVDC-NH2
modifications: disulfide 1-6 (inferred)
B15: N-Ac-CHAVDINGC-NH2 (peptide)
peptide: Ac-CHAVDINGC-NH2
modifications: disulfide 1-9 (inferred)
B16: N-Ac-CSHGVSSC-NH2 (peptide)
peptide: Ac-CSHGVSSC-NH2
modifications: disulfide 1-8
SMILES: CC(=O)N[C@H]1CSSC[C@@H](C(N)=O)NC(=O)[C@H](CO)NC(=O)[C@H](CO)NC(=O)[C@H](C(C)C)NC(=O)CNC(=O)[C@H](Cc2c[nH]cn2)NC(=O)[C@H](CO)NC1=O
B17: N-Ac-CHGVSSC-NH2 (peptide)
peptide: Ac-CHGVSSC-NH2
modifications: disulfide 1-7 (inferred)
B18: N-Ac-CSHAVC-NH2 (peptide)
peptide: Ac-CSHAVC-NH2
modifications: disulfide 1-6 (inferred)
B19: H-CAHAVDC-NH2 (peptide)
peptide: H-CAHAVDC-NH2
modifications: disulfide 1-7
SMILES: CC(C)[C@@H]1NC(=O)[C@H](C)NC(=O)[C@H](Cc2c[nH]cn2)NC(=O)[C@H](C)NC(=O)[C@@H](N)CSSC[C@@H](C(N)=O)NC(=O)[C@H](CC(=O)O)NC1=O
B20: H-CAHAVDIC-NH2 (peptide)
peptide: H-CAHAVDIC-NH2
modifications: disulfide 1-8 (inferred)
B21: H-CHAVC-NH2 (peptide)
peptide: H-CHAVC-NH2
modifications: disulfide 1-5 (inferred)
B22: N-Ac-CHAVSSC-NH2 (peptide)
peptide: Ac-CHAVSSC-NH2
modifications: disulfide 1-7 (inferred)
B23: N-Ac-CFSHAVC-NH2 (peptide)
peptide: Ac-CFSHAVC-NH2
modifications: disulfide 1-7 (inferred)

biological target: T1, chick N-cadherin expressed on …; assay: cell-based or functional assay

Row | Binder | Percent Inhibition of N-cadherin dependent neurite outgrowth (peptide 250 µg/ml)
1 | B1 | 32.5%
2 | B2 | 6.9%
3 | B3 | 23.7%
4 | B4 | 15.7%
5 | B5 | 37.8%
6 | B6 | 3.3%
7 | B7 | 10.6%

biological target: T2, E-cadherin on Madin Darby canine kidney …; assay: cell-based or functional assay

Row | Binder | EC50, decrease of electrical resistance across MDCK cell monolayer
8 | B2 | 490 µM
9 | B3 | 480 µM
10 | B8 | 490 µM
11 | B5 | 430 µM
12 | B6 | 470 µM
13 | B9 | 210 µM

biological target: T1, chick N-cadherin expressed on …; assay: cell-based or functional assay; remark: another data set of the same source

Row | Binder | % inhibition of neurite outgrowth (peptide 125 µg/mL) | EC50 for inhibition of neurite outgrowth
14 | B10 | 58% | 185 µM
15 | B11 | 62% | 70 µM
16 | B12 | 64.9% | 128 µM
17 | B13 | 88.3% | 60 µM
18 | B14 | 77.1% | 93 µM
19 | B15 | 1.5% | –

biological target: T1, chick N-cadherin expressed on …; assay: cell-based or functional assay; remark: another data set of the same source

Row | Binder | % inhibition of N-cadherin dependent neurite outgrowth (peptide 250 µg/mL)
20 | B16 | -5.6%
21 | B17 | 14.8%
22 | B18 | 11%
23 | B19 | 1.3%
24 | B20 | -3.7%
25 | B21 | 1.7%
26 | B22 | 34.4%
27 | B14 | 88.4%

biological target: T1, chick N-cadherin expressed on …; assay: cell-based or functional assay; remark: another data set of the same source

Row | Binder | EC50 for inhibition of neurite outgrowth
28 | B12 | 80 µM
29 | B9 | 120 µM

biological target: human L1 expressed on transfected 3T3 cells (human, UniProt P32004 20-1257); assay: cell-based or functional assay
Sequence (P32004 20-1257): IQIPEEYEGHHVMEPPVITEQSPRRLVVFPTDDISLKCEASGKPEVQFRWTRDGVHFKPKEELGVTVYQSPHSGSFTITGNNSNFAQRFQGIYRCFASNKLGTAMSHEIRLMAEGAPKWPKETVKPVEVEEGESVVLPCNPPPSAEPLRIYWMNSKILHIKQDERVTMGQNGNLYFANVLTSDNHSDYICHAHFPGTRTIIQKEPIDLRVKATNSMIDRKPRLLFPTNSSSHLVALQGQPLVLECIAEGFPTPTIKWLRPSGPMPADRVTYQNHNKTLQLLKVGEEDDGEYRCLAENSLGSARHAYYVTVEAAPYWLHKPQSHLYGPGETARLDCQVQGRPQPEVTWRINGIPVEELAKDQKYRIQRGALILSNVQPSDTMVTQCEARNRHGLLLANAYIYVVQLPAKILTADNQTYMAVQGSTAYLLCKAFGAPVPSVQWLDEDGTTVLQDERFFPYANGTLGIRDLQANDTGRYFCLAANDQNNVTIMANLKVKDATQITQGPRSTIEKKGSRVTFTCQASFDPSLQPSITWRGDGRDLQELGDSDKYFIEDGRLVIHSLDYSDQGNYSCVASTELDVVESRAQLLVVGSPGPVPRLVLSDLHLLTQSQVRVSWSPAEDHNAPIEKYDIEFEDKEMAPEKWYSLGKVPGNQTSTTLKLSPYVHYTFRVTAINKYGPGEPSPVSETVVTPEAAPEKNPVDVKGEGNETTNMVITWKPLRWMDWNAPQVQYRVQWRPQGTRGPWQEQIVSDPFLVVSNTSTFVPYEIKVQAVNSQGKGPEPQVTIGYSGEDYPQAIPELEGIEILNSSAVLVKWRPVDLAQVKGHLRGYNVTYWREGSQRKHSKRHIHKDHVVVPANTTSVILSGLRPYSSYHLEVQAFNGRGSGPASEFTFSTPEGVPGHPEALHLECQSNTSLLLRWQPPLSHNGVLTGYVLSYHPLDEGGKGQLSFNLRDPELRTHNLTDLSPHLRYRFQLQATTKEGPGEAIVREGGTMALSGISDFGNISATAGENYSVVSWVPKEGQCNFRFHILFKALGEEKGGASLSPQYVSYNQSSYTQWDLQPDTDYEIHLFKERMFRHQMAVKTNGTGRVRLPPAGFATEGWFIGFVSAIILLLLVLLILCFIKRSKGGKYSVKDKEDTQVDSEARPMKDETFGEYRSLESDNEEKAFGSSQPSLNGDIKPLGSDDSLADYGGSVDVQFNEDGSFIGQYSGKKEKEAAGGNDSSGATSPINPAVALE

Row | Binder | % Inhibition of L1 Response (peptide 125 µg/ml)
30 | B11 | 1.7%
31 | B13 | 6%
32 | B14 | 9.6%

biological target: T1, chick N-cadherin expressed on …; assay: cell-based or functional assay; remark: another data set of the same source

Row | Binder | % Inhibition of N-Cadherin Response (peptide 125 µg/ml)
33 | B11 | 62%
34 | B13 | 88.3%
35 | B14 | 77.1%

biological target: T1, chick N-cadherin expressed on …; assay: cell-based or functional assay; remark: another data set of the same source

Row | Binder | Percent Inhibition of N-cadherin dependent neurite outgrowth (peptide 250 µg/ml)
36 | B19 | 1.3%
37 | B20 | -3.7%
38 | B21 | 1.7%

biological target: N-cadherin expressed on transfected 3T3 cells (Examples 2 and 21); assay: cell-based or functional assay

Row | Binder | % Inhibition of neurite outgrowth, 250 µg/mL (rat neurons)
39 | B16 | 0%
40 | B17 | 0%
41 | B18 | 0%
42 | B19 | 0%
43 | B20 | 0%
44 | B21 | 0%
45 | B22 | 0%
46 | B14 | 88%

biological target: T2, E-cadherin on Madin Darby canine kidney …; assay: cell-based or functional assay; remark: another data set of the same source

Row | Binder | EC50, decrease of electrical resistance across MDCK cell monolayer
47 | B18 | 20 µM
48 | B23 | 22 µM
